According to IntAct's records for PubMed 32851177:

B1: Osteopetrosis-associated transmembrane protein 1 (Homo sapiens), Q86WC4 (parent)
chain: MEPGPTAAQRRCSLPPWLPLGLLLWSGLALGALPFGSSPHRVFHDLLSEQQLLEVEDLSLSLLQGGGLGPLSLPPDLPDLDPECRELLLDFANSSAELTGCLVRSARPVRLCQTCYPLFQQVVSKMDNISRAAGNTSESQSCARSLLMADRMQIVVILSEFFNTTWQEANCANCLTNNSEELSNSTVYFLNLFNHTLTCFEHNLQGNAHSLLQTKNYSEVCKNCREAYKTLSSLYSEMQKMNELENKAEPGTHLCIDVEDAMNITRKLWSRTFNCSVPCSDTVPVIAVSVFILFLPVVFYLSSFLHSEQKKRKLILPKRLKSSTSFANIQENSN
partner: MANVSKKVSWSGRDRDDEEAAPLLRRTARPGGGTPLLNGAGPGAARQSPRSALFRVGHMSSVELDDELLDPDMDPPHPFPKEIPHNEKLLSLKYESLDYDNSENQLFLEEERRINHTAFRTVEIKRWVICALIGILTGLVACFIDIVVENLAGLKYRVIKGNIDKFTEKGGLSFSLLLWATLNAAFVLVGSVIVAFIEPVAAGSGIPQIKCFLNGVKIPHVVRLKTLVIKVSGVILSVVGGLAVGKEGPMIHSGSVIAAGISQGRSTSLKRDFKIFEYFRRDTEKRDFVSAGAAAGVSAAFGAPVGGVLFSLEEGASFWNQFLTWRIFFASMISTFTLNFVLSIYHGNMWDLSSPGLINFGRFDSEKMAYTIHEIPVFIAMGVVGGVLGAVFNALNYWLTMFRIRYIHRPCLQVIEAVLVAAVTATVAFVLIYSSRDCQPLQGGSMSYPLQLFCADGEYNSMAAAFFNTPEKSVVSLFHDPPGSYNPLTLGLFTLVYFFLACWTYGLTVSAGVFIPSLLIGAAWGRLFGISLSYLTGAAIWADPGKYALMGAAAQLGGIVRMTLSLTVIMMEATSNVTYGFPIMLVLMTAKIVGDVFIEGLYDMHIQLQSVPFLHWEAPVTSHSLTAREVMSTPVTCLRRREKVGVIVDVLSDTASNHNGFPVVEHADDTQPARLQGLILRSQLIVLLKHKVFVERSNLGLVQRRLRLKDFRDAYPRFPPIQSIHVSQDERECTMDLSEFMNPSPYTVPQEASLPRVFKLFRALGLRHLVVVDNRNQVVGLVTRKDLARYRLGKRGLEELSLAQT

Variants of: B1
Settings: with clcn7_human CLCN7, P51798

Q: Which “effect of a mutation on the interaction” value does the source give for MEPGPTAAQRRCSLPPWLPLGLLLWSGLALGALPFGSSPHRVFHDLLSEQQLLEVEDLSLSLLQGGGLGPLSLPPDLPDLDPECRELLLDFANSSAELTGCLVRSARPVRLCQTCYPLFQQVVSKMDNISRAAGNTSESQSCARSLLMADRMQIVVILSEFFNTTWQEANCANCLTNNSEELSNSTVYFLNLFNHTLTCFEHNLQGNAHSLLQTKNYSEVCKNCREAYKTLSSLYSEMQKMNELENKAEPGTHLCIDVEDAMNITRKLWSRTFNCSVPCSDTVPVIAVSVFILFLPVVFALSSFLHSEQKKRKLILPKRLKSSTSFANIQENSN [Y300A] here?
A: Its value is “decreasing interaction strength”.
